Experimental findings from publication PMC5991677, “3-methylcrotonyl Coenzyme A (CoA) carboxylase complex is involved in the Xanthomonas citri subsp. citri lifestyle during citrus infection” (PLoS ONE, 2018) are described below.

The stoichiometry N is a count of units in the complex or per binding partner. In general, Km refers to the substrate concentration at which the rate is half of its maximum.

Series [1] concerns the target His-AccD, β subunit of the 3-methylcrotonyl-CoA carboxylase (MCC) complex of Xanthomonas citri subsp. citri (XAC0264) (Xanthomonas citri subsp. citri) (UniProt Q8PJ30). In words: SEC; Superdex S200, 500 μg of AccC, AccD or the complex (preincubated mixture of both) loaded; 50 mM potassium phosphate pH 7.6, 50 mM NaCl, 0.5 mM DTT; calibrated with mass standards; fractions of the complex analysed by SDS-PAGE.

The subject of series [2] is CC(C)=CC(=O)SCCNC(=O)CCNC(=O)[C@H](O)C(C)(C)COP(=O)(O)OP(=O)(O)OC[C@H]1O[C@@H](n2cnc3c(N)ncnc32)[C@H](O)[C@@H]1OP(=O)(O)O. The experiment in a line: purified protein. As to conditions: co-substrates ATP and bicarbonate, Mg; 3-methylcrotonyl-CoA varied 1-1000 μM; enzyme complex 0.05 μM (Fig 4 legend says 0.5 μM).

In the case of “His-AccC, α subunit of the 3-methylcrotonyl-CoA carboxylase (MCC) complex of Xanthomonas citri subsp. citri (XAC0263) (from UniProt A0AAI8ER48 1-675) (natural protein)”, in series [1], the stoichiometry N worked out at 1.

In the case of “His-AccD, β subunit of the 3-methylcrotonyl-CoA carboxylase (MCC) complex of Xanthomonas citri subsp. citri (XAC0264) (from UniProt Q8PJ30 1-295) (natural protein)”, in series [1], the stoichiometry N amounted to 6.

Regarding “MCC complex (His-AccC / His-AccD, α6β6) (Xanthomonas citri subsp. citri 306)”, the Km in series [2] turned out to be 71.4 µM.
